Laboratory results from paper PMC5118228 (EJNMMI Research, 2016).
Read-outs that look alike come from different tables or passages of the source.

Experiments:
[1] = test system: nontumor-bearing mice; type: in vivo; conditions: for median survival / MTD: nontumor-bearing mice; for survival rate at 90 days post-treatment: n=8; for MTD: 90 days, n=8/cohort
Procedure: MTD was defined as the highest dose given to the animals allowing 100% survival with no significant weight loss >15% throughout the experiment. Nontumor-bearing mice were randomly divided into seven cohorts used to evaluate MTD, six treatments and one control (n = 8/cohort); see Table 1. […] Control mice received DOTATATE (4 × 0.3 nmol) on four consecutive days. The animals were followed for 90 days. Serum was analyzed for the biomarker neutrophil gelatinase-associated lipocalin (NGAL) using ELISA (R&D Systems, 450 nm).

[2] = test system: AR42J tumor; conditions: low-dose (16.8 ± 1.3 MBq) and high-dose (33.1 ± 3.7 MBq); AR42J tumor-bearing mice
Procedure: Athymic male nu/nu mice (Tachonic), 6–8 weeks old, were used in all studies. Tumor models were established by inoculating 5 × 10^6 rat pancreatic tumor AR42J cells (American Type Culture Collection) with high SSTR2 expression into the right hind flank of the animals. After 3 weeks, the tumor size reached approximately 200 mm^3. All animal experiments were carried out following Institutional Animal Care and Use Committee-approved protocol.
Toxicity and therapeutic efficacy were investigated in 18 animals (n = 6/cohort): control, low-dose (cumulative 16.8 ± 1.3 MBq), and high-dose (cumulative 33.1 ± 3.7 MBq) cohorts. Treatment started 23 days after xenograft inoculation. Control mice received in total 4 × 0.3 nmol DOTATATE on two consecutive days. Two injections of 0.3 nmol DOTATATE per day were given, with a time interval of at least 6 h. […] The high-dose cohort received four doses on two consecutive days, twice a day with a time interval of at least 6 h. […] Animals were monitored for 30 days starting on the day of treatment. Tumors were measured by caliper, and animals were weighed at least twice weekly. The endpoints chosen were weight loss >15% and tumor volume >2000 mm^3. […]

[3] = test system: tumor and normal organs of mice; test: Radiation dosimetry (MIRD schema, Olinda/EXM spherical S-factors); type: in vivo; conditions: for mean radiation absorbed tumor dose: predicted from ^111In-DOTATATE tumor uptake, AR42J tumor-bearing mice; for mean radiation absorbed dose for femur: high-dose cohort
Procedure: Saturation of receptor-specific tumor uptake was investigated by determining the kinetics of the tumor uptake with increasing injected mass of peptide. The time-activity curves for the tumor and normal organs were fitted by single-exponential functions using Prism-5 (GraphPad). Goodness of fit was analyzed with the Pearson correlation coefficient R ^2 > 0.8. Both F test and the Aikake information criterion were used to decide on the complexity of the curves.
Dosimetry was performed according to the MIRD schema by using the spherical nodes S-factors from the Olinda/EXM software. S-factors were interpolated from the actual weight of the organs and tissue. All organs and tissue were assumed to be spherical with a density of […]. Mean radiation absorbed doses were obtained as a function-injected mass of peptide, assuming a homogeneous distribution in the tumor and organs. […] Owing to the short path length of α-particles, only the self-dose within each organ was included. The threshold for lethality was determined with renal absorbed dose and injected activity as indicators. Logistic regression analysis was used to determine the LD50 for presumed renal toxicity-related death.

[4] = in vivo; conditions: male, athymic nu/nu, mouse, iv, 0.3 nmol, total radioactivity
[5] = with L-lysine (35 mg), tumor-bearing mice, calculated
[6] = without L-lysine, tumor-bearing mice, calculated

C[C@@H](O)[C@H](NC(=O)[C@@H]1CSSC[C@H](NC(=O)[C@@H](Cc2ccccc2)NC(=O)CN2CCN(CC(=O)O)CCN(CC(=O)O)CCN(CC(=O)O)CC2)C(=O)N[C@@H](Cc2ccc(O)cc2)C(=O)N[C@H](Cc2c[nH]c3ccccc23)C(=O)N[C@@H](CCCCN)C(=O)N[C@@H]([C@@H](C)O)C(=O)N1)C(=O)O [^213Bi-DOTATATE, metal not drawn]
median survival ([1]; all treated cohorts except the high-dose without L-lysine): > 90 days
median survival ([1]; high-dose without L-lysine, 28.7 ± 1.2 MBq): 24 days
survival rate at 90 days post-treatment ([1]; high-dose(+), 28.3 ± 0.8 MBq, with L-lysine): 75%
survival rate at 90 days post-treatment ([1]; high-dose(−), 28.7 ± 1.2 MBq, without L-lysine): 0%
MTD ([1]; in absence of L-lysine): < 13.0 ± 1.6 MBq
survival rate at 90 days post-treatment ([1]; low-dose(+), 13.2 ± 0.9 MBq, with L-lysine): 100%
survival rate at 90 days post-treatment ([1]; low-dose(−), 13.0 ± 1.6 MBq, without L-lysine): 87.5%
survival rate at 90 days post-treatment ([1]; medium-dose(+), 21.7 ± 1.9 MBq, with L-lysine): 100%
survival rate at 90 days post-treatment ([1]; medium-dose(−), 20.7 ± 0.8 MBq, without L-lysine): 62.5%
MTD ([1]; with L-lysine renal protection (35 mg i.p.)): 21.7 ± 1.9 MBq
tumor volume [2]: significantly decreased
mean radiation absorbed tumor dose ([3]; 0.1 nmol peptide): approximately 0.5 Gy/MBq
mean radiation absorbed tumor dose ([3]; 0.3 nmol peptide): approximately 0.5 Gy/MBq
mean radiation absorbed dose for femur ([3]; with pre-treatment of L-lysine): 1.3 Gy
mean radiation absorbed dose for femur ([3]; without L-lysine): 1.0 Gy
mean renal absorbed dose ([3]; high-dose(+) cohort, 28.3 ± 0.8 MBq): 16 Gy
time-integrated activity coefficient in the kidney ([3]; mice pre-treated with L-lysine): 6.0 ± 2.4 min/g
time-integrated activity coefficient in the kidney ([3]; mice without pre-treatment of L-lysine): 12.0 ± 3.7 min/g
renal absorbed dose ([3]; nontumor-bearing animals, with L-lysine): 0.50 Gy/MBq
renal absorbed dose ([3]; nontumor-bearing animals, without L-lysine): 1.0 Gy/MBq
renal absorbed dose ([3]; tumor-bearing animals, with L-lysine): 0.56 Gy/MBq
renal absorbed dose ([3]; tumor-bearing animals, without L-lysine): 1.1 Gy/MBq
Radiation absorbed dose per administered activity, Adrenals, Total α [3, 5]: 5.60E-02 Gy/MBq
Radiation absorbed dose per administered activity, Adrenals, Total β [3, 5]: 2.00E-03 Gy/MBq
Radiation absorbed dose per administered activity, Adrenals, ^209Pb β [3, 5]: 1.30E-04 Gy/MBq
Radiation absorbed dose per administered activity, Adrenals, ^209Tl β + γ [3, 5]: 4.00E-05 Gy/MBq
Radiation absorbed dose per administered activity, Adrenals, ^213Bi α [3, 5]: 8.00E-04 Gy/MBq
Radiation absorbed dose per administered activity, Adrenals, ^213Bi β [3, 5]: 1.80E-03 Gy/MBq
Radiation absorbed dose per administered activity, Adrenals, ^213Po α [3, 5]: 5.49E-02 Gy/MBq
Radiation absorbed dose per administered activity, Blood, Total α [3, 5]: 1.09E-01 Gy/MBq
Radiation absorbed dose per administered activity, Blood, Total β [3, 5]: 6.00E-03 Gy/MBq
Radiation absorbed dose per administered activity, Blood, ^209Pb β [3, 5]: 2.00E-04 Gy/MBq
Radiation absorbed dose per administered activity, Blood, ^209Tl β + γ [3, 5]: 1.40E-04 Gy/MBq
Radiation absorbed dose per administered activity, Blood, ^213Bi α [3, 5]: 1.60E-03 Gy/MBq
Radiation absorbed dose per administered activity, Blood, ^213Bi β [3, 5]: 5.20E-03 Gy/MBq
Radiation absorbed dose per administered activity, Femur, Total α [3, 5]: 4.20E-02 Gy/MBq
Radiation absorbed dose per administered activity, Femur, Total β [3, 5]: 2.00E-03 Gy/MBq
Radiation absorbed dose per administered activity, Femur, ^209Pb β [3, 5]: 1.00E-04 Gy/MBq
Radiation absorbed dose per administered activity, Femur, ^209Tl β + γ [3, 5]: 4.00E-05 Gy/MBq
Radiation absorbed dose per administered activity, Femur, ^213Bi α [3, 5]: 6.00E-04 Gy/MBq
Radiation absorbed dose per administered activity, Femur, ^213Bi β [3, 5]: 1.60E-03 Gy/MBq
Radiation absorbed dose per administered activity, Femur, ^213Po α [3, 5]: 4.13E-02 Gy/MBq
Radiation absorbed dose per administered activity, Kidney, Total α [3, 5]: 5.33E-01 Gy/MBq
Radiation absorbed dose per administered activity, Kidney, Total β [3, 5]: 2.60E-02 Gy/MBq
Radiation absorbed dose per administered activity, Kidney, ^209Pb β [3, 5]: 1.40E-03 Gy/MBq
Radiation absorbed dose per administered activity, Kidney, ^209Tl β + γ [3, 5]: 6.30E-04 Gy/MBq
Radiation absorbed dose per administered activity, Kidney, ^213Bi α [3, 5]: 8.00E-03 Gy/MBq
Radiation absorbed dose per administered activity, Kidney, ^213Bi β [3, 5]: 2.37E-02 Gy/MBq
Radiation absorbed dose per administered activity, Kidney, ^213Po α [3, 5]: 5.25E-01 Gy/MBq
Radiation absorbed dose per administered activity, Pancreas, Total α [3, 5]: 1.36E-01 Gy/MBq
Radiation absorbed dose per administered activity, Pancreas, Total β [3, 5]: 5.00E-03 Gy/MBq
Radiation absorbed dose per administered activity, Pancreas, ^209Pb β [3, 5]: 8.90E-04 Gy/MBq
Radiation absorbed dose per administered activity, Pancreas, ^209Tl β + γ [3, 5]: 1.00E-04 Gy/MBq
Radiation absorbed dose per administered activity, Pancreas, ^213Bi α [3, 5]: 2.00E-03 Gy/MBq
Radiation absorbed dose per administered activity, Pancreas, ^213Bi β [3, 5]: 4.50E-03 Gy/MBq
Radiation absorbed dose per administered activity, Pancreas, ^213Po α [3, 5]: 1.34E-01 Gy/MBq
Radiation absorbed dose per administered activity, Stomach, Total α [3, 5]: 6.10E-02 Gy/MBq
Radiation absorbed dose per administered activity, Stomach, Total β [3, 5]: 3.00E-03 Gy/MBq
Radiation absorbed dose per administered activity, Stomach, ^209Pb β [3, 5]: 2.20E-04 Gy/MBq
Radiation absorbed dose per administered activity, Stomach, ^209Tl β + γ [3, 5]: 7.00E-05 Gy/MBq
Radiation absorbed dose per administered activity, Stomach, ^213Bi α [3, 5]: 9.00E-04 Gy/MBq
Radiation absorbed dose per administered activity, Stomach, ^213Bi β [3, 5]: 2.60E-03 Gy/MBq
Radiation absorbed dose per administered activity, Stomach, ^213Po α [3, 5]: 6.00E-02 Gy/MBq
Radiation absorbed dose per administered activity, Tumor, Total α [3, 5]: 6.14E-01 Gy/MBq
Radiation absorbed dose per administered activity, Tumor, Total β [3, 5]: 4.40E-02 Gy/MBq
Radiation absorbed dose per administered activity, Tumor, ^209Pb β [3, 5]: 1.41E-02 Gy/MBq
Radiation absorbed dose per administered activity, Tumor, ^209Tl β + γ [3, 5]: 8.60E-04 Gy/MBq
Radiation absorbed dose per administered activity, Tumor, ^213Bi α [3, 5]: 9.20E-03 Gy/MBq
Radiation absorbed dose per administered activity, Tumor, ^213Bi β [3, 5]: 2.87E-02 Gy/MBq
Radiation absorbed dose per administered activity, Tumor, ^213Po α [3, 5]: 6.05E-01 Gy/MBq
Radiation absorbed dose per administered activity, Adrenals, Total α [3, 6]: 3.60E-02 Gy/MBq
Radiation absorbed dose per administered activity, Adrenals, Total β [3, 6]: 2.00E-03 Gy/MBq
Radiation absorbed dose per administered activity, Adrenals, ^209Pb β [3, 6]: 2.00E-04 Gy/MBq
Radiation absorbed dose per administered activity, Adrenals, ^209Tl β + γ [3, 6]: 2.00E-05 Gy/MBq
Radiation absorbed dose per administered activity, Adrenals, ^213Bi α [3, 6]: 5.00E-04 Gy/MBq
Radiation absorbed dose per administered activity, Adrenals, ^213Bi β [3, 6]: 1.50E-03 Gy/MBq
Radiation absorbed dose per administered activity, Adrenals, ^213Po α [3, 6]: 3.56E-02 Gy/MBq
Radiation absorbed dose per administered activity, Blood, Total α [3, 6]: 9.00E-02 Gy/MBq
Radiation absorbed dose per administered activity, Blood, Total β [3, 6]: 5.00E-03 Gy/MBq
Radiation absorbed dose per administered activity, Blood, ^209Pb β [3, 6]: 1.60E-04 Gy/MBq
Radiation absorbed dose per administered activity, Blood, ^209Tl β + γ [3, 6]: 1.20E-04 Gy/MBq
Radiation absorbed dose per administered activity, Blood, ^213Bi α [3, 6]: 1.30E-03 Gy/MBq
Radiation absorbed dose per administered activity, Blood, ^213Bi β [3, 6]: 4.30E-03 Gy/MBq
Radiation absorbed dose per administered activity, Blood, ^213Po α [3, 6]: 8.80E-02 Gy/MBq
Radiation absorbed dose per administered activity, Femur, Total α [3, 6]: 3.20E-02 Gy/MBq
Radiation absorbed dose per administered activity, Femur, Total β [3, 6]: 1.00E-03 Gy/MBq
Radiation absorbed dose per administered activity, Femur, ^209Pb β [3, 6]: 1.00E-04 Gy/MBq
Radiation absorbed dose per administered activity, Femur, ^209Tl β + γ [3, 6]: 3.00E-05 Gy/MBq
Radiation absorbed dose per administered activity, Femur, ^213Bi α [3, 6]: 5.00E-04 Gy/MBq
Radiation absorbed dose per administered activity, Femur, ^213Bi β [3, 6]: 1.30E-03 Gy/MBq
Radiation absorbed dose per administered activity, Femur, ^213Po α [3, 6]: 3.16E-02 Gy/MBq
Radiation absorbed dose per administered activity, Kidney, Total α [3, 6]: 1.07E+00 Gy/MBq
Radiation absorbed dose per administered activity, Kidney, Total β [3, 6]: 5.50E-02 Gy/MBq
Radiation absorbed dose per administered activity, Kidney, ^209Pb β [3, 6]: 6.20E-03 Gy/MBq
Radiation absorbed dose per administered activity, Kidney, ^209Tl β + γ [3, 6]: 1.30E-03 Gy/MBq
Radiation absorbed dose per administered activity, Kidney, ^213Bi α [3, 6]: 1.61E-02 Gy/MBq
Radiation absorbed dose per administered activity, Kidney, ^213Bi β [3, 6]: 4.71E-02 Gy/MBq
Radiation absorbed dose per administered activity, Pancreas, Total α [3, 6]: 1.34E-01 Gy/MBq
Radiation absorbed dose per administered activity, Pancreas, Total β [3, 6]: 5.00E-03 Gy/MBq
Radiation absorbed dose per administered activity, Pancreas, ^209Pb β [3, 6]: 7.00E-04 Gy/MBq
Radiation absorbed dose per administered activity, Pancreas, ^209Tl β + γ [3, 6]: 1.00E-04 Gy/MBq
Radiation absorbed dose per administered activity, Pancreas, ^213Bi α [3, 6]: 2.00E-03 Gy/MBq
Radiation absorbed dose per administered activity, Pancreas, ^213Bi β [3, 6]: 4.50E-03 Gy/MBq
Radiation absorbed dose per administered activity, Pancreas, ^213Po α [3, 6]: 1.32E-01 Gy/MBq
Radiation absorbed dose per administered activity, Stomach, Total α [3, 6]: 9.00E-02 Gy/MBq
Radiation absorbed dose per administered activity, Stomach, Total β [3, 6]: 5.00E-03 Gy/MBq
Radiation absorbed dose per administered activity, Stomach, ^209Pb β [3, 6]: 5.90E-04 Gy/MBq
Radiation absorbed dose per administered activity, Stomach, ^209Tl β + γ [3, 6]: 1.10E-04 Gy/MBq
Radiation absorbed dose per administered activity, Stomach, ^213Bi α [3, 6]: 1.30E-03 Gy/MBq
Radiation absorbed dose per administered activity, Stomach, ^213Bi β [3, 6]: 3.90E-03 Gy/MBq
Radiation absorbed dose per administered activity, Stomach, ^213Po α [3, 6]: 8.84E-02 Gy/MBq
Radiation absorbed dose per administered activity, Tumor, Total α [3, 6]: 6.61E-01 Gy/MBq
Radiation absorbed dose per administered activity, Tumor, Total β [3, 6]: 4.80E-02 Gy/MBq
Radiation absorbed dose per administered activity, Tumor, ^209Pb β [3, 6]: 1.58E-02 Gy/MBq
Radiation absorbed dose per administered activity, Tumor, ^209Tl β + γ [3, 6]: 9.60E-04 Gy/MBq
Radiation absorbed dose per administered activity, Tumor, ^213Bi α [3, 6]: 9.90E-03 Gy/MBq
Radiation absorbed dose per administered activity, Tumor, ^213Bi β [3, 6]: 3.14E-02 Gy/MBq
Radiation absorbed dose per administered activity, Tumor, ^213Po α [3, 6]: 6.51E-01 Gy/MBq
tissue uptake at 1 h ([4]; Renal activity): 17.4 ± 2.2 %ID/g
tissue uptake at 10 min ([4]; Tumor uptake): 5.3 ± 2.8 %ID/g
tissue uptake at 1 h ([4]; Tumor uptake): 6.5 ± 2.3 %ID/g
